According to publication PMC9204161:

Biological target: biotin-ahx-ahx-EPQpYEEIPIYL (biotinylated pTyr peptide derived from the protein MidT)
Test: BLI; Octet RED96 (ForteBio); biotinylated peptides immobilised on a streptavidin biosensor; SH2 variants at 300, 150 and 0 nM

With “SH2-WT (wild-type Fyn SH2 domain), 6xHis-tagged protein (from UniProt P06241 149-246) (domain or fragment)” as the substance, how does the Kd read?
The Kd was 0.267 µM.
